# Target: recombinant Ku70 (human) (UniProt P12956)
# Assay: not stated; complex of recombinant Ku70 and IN; method of the Kd not told
# Chain of UniProt P12956 (P12956 whole entry): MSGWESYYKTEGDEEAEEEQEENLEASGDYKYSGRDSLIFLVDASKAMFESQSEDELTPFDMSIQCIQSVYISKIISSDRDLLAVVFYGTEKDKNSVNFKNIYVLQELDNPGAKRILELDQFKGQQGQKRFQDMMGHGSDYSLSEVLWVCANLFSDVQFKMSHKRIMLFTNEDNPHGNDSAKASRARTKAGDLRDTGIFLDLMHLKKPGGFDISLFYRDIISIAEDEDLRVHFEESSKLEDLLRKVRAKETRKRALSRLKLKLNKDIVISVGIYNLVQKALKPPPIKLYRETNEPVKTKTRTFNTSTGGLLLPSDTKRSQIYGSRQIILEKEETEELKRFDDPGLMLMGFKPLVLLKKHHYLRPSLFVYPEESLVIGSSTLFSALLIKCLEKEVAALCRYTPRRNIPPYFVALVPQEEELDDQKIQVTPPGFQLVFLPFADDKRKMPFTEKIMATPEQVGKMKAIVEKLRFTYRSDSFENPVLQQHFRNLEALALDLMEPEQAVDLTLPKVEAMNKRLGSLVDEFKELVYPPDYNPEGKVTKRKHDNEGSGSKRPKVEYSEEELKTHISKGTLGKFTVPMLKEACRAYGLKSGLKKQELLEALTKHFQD
substance,measurement,value
"recombinant His6-IN, wild type (HIV-1 integrase, abstract P13) (enzyme)",Kd,70 nM
